Reference: PMC2148171 (The Journal of Cell Biology, 1998)
Where two headings read alike, the source gives them in different places.

B1: baculovirus produced 6x histidine-tagged recombinant CHO cell MCAK (mitotic centromere-associated kinesin) (natural protein, Chinese hamster (CHO cell MCAK), UniProt P70096 1-718, looked up)
chain: MESLPARLFPGLSIKIQRSNGLIHSANISTVNVEKSCVSVEWIEGGNTKGKEIDFDDVAAINPELLQLLPLHPKDNLPLQENVTVPKQKRRSVNSKIPAPKEGLRSRSTRMSTVPEVRIATQENEMEVELPVATNSRKQFSVATGLPRPSCPAMTELPLSMVSEEAEEQVHPTRSTSSANPARRKSCIVKEMEKMKNKREEKRAQNSEIRIKRAQEYDSSFPNWEFARMIKEFRVTIECHPLTLTDPTEEHRICVCVRKRPLNKQELAKKEIDVISVPSKCLLFVHEPKLKVDLTKYLENQAFCFDFAFDETASNEVVYRFTARPLVQTIFEGGKATCFAYGQTGSGKTHTMGGDLSGKSQNTSKGIYAMASRDVFLLKSQPRYRNLNLEVYVTFFEIYNGKVFDLLNKKAKLRVLEDSKQQVQVVGLQEYLVNCADDVIKMLNMGSACRTSGQTFANSNSSRSHACFQILLRAKGRLHGKFSLVDLAGNERGADTSSADRQTRMEGAEINKSLLALKECIRALGQNKAHTPFRESKLTQVLRDSFIGENSRTCMIAMISPGISSCEYTLNTLRYADRVKELSPHSGLSGEQPIQMETEEMEASSNGTSLAVNFKEEEELSSQMSSFNEAMSQIRELEERAMEELREIIQQGPGWLELSEMTDQPDYDLETFVNKAESALTQQTKHFSALREVIKALRVAMQLEEQASKQMNSKKRHQ
B2: MCAK (mitotic centromere-associated kinesin) in CHO cells (natural protein, Chinese hamster (endogenous in CHO-K1), UniProt P70096 1-718, looked up)
chain: B1 chain

Tests used:
[1] = molecular target: the molecule itself; assay: SEC + other: sucrose density gradient centrifugation
[2] = molecular target: the molecule itself; assay: as above; remark: listed apart in the source

Row | Protein | stoichiometry N [1] | stoichiometry N [2]
1 | B1 | 2 | –
2 | B2 | – | 2
